In US20230272056A1 (Merck Sharp & Dohme, published 2023):
Residue numbers refer to the chain shown, from its start. Names and notes keep the numbering of the source.

B1: 59BJN (Fab, V domains shown)
VH: EVQLVQSGAEVKKPGASVKVSCKASGYTFTSYQVHWVRQAPGQGLEWMGRIDPQSGGIKYAQKFQGRATLTVDTSTSTAYMELSRLRSDDTAVYYCARWDYGGYFDVWGQGTLVTVSS
VL: DIQMTQSPSSLSASVGDRVTITCRASQDIYNYLNWYQQKPGKAVKLLIYYTSRLHSGVPSRFSGSGSGTDYTLTISSLQPEDFATYFCQQGDTLPWTFGQGTKLEIKR
notes: also called VH W33Q M34V / VL T30Y (59BJN)
B2: 66BJN (Fab, V domains shown)
VH: B1 VH with Q33D, V34M, S55T, Y101H
VL: B1 VL with L94Q
notes: also called VH W33D S55T Y101H / VL T30Y L94Q (66BJN)
B3: 67BJN (Fab, V domains shown)
VH: B1 VH with Q33D, V34M
VL: B1 VL with R53V
notes: also called VH W33D / VL T30Y R53V (67BJN)
B4: 63BJN (Fab, V domains shown)
VH: B1 VH with S31F, Q33D, V34I
VL: B1 VL
notes: also called VH S31F W33D M34I / VL T30Y (63BJN)
B5: 64BJN (Fab, V domains shown)
VH: B1 VH with S31T, Q33W, V34M, I58S
VL: B1 VL with R53H
notes: also called VH S31T I58S / VL T30Y R53H (64BJN)
B6: 60BJN (Fab, V domains shown)
VH: B1 VH with Q33D, V34M, I58E, W99Y
VL: B1 VL
notes: also called VH W33D I58E W99Y / VL T30Y (60BJN)
B7: 61BJN (Fab, V domains shown)
VH: B1 VH with S31D, Q33D, V34M, G57D, I58H, K59D, W99Y, Y101H
VL: B1 VL
notes: also called VH S31D W33D G57D I58H K59D W99Y Y101H / VL T30Y (61BJN)
B8: 62BJN (Fab, V domains shown)
VH: B1 VH with Q33D, V34M, Q54Y, S55G, W99Y, Y101H
VL: B1 VL
notes: also called VH W33D Q54Y S55G W99Y Y101H / VL T30Y (62BJN)
B9: 65BJN (Fab, V domains shown)
VH: B1 VH with Q33D, V34L, W99Y, Y101Q
VL: B1 VL with N31Y
notes: also called VH W33D M34L W99Y Y101Q / VL T30Y N31Y (65BJN)

target: T1, human LAP-TGFB2 Fc fusion (human); experiment: SPR
T1 construct: also called human LAP-TGFβ2; LAP-TGFβ isoform 2
Excerpt: (§1) This Example describes the isoform specificity of the yeast display mutants to bind to human LAP-TGFβ isoforms 1, 2, and 3 using surface plasmon resonance. A Series S CM4 sensor chip (GE Healthcare, catalog BR100534) was immobilized with an anti-human Fc capture antibody following the kit protocol (GE Healthcare, catalog BR100839) on a Biacore T200 instrument with 1× HBS-EP+ (Teknova, catalog H8022). […] Binding specificity experiments between human LAP-TGFβ isoforms 2 and 3 and yeast display mutants were performed in 1× HBS-EP+ with 0.1 mg/mL BSA at 25° C. Approximately 20-40 RU amounts of human LAP-TGFβ2 and 3 were captured to the anti-human Fc surface followed by injection of 1000 nM Fab including a negative control 0 nM Fab. The binding data were double referenced by subtraction of signal from a reference (capture surface only) flow cell and the negative control 0 nM Fab injection. Binding rate constants were determined by fitting the data with a 1:1 binding model (GE Healthcare Biacore T200 Evaluation software 3.0).

T1 sequence (chain, as listed by the source limits assumed): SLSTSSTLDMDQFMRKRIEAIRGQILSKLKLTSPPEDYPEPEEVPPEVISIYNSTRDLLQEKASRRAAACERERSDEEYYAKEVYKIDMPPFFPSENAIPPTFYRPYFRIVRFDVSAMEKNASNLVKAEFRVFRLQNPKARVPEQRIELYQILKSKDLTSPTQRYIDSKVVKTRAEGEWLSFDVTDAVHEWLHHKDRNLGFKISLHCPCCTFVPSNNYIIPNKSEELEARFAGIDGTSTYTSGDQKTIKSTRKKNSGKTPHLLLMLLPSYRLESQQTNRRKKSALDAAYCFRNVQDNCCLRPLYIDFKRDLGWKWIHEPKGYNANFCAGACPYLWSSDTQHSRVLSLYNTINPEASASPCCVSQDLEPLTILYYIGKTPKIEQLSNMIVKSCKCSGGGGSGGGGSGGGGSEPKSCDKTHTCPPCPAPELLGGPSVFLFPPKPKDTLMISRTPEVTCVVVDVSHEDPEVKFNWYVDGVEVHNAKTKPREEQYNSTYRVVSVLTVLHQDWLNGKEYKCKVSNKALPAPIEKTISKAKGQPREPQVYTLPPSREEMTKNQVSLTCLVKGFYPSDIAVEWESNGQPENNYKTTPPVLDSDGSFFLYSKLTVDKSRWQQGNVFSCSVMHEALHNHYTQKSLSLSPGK

binding result | Binder
no binding (tested: 1000 nM Fab) | B1
no binding (tested: 1000 nM Fab) | B2
no binding (tested: 1000 nM Fab) | B3
no binding (tested: 1000 nM Fab) | B4
no binding (tested: 1000 nM Fab) | B5
no binding (tested: 1000 nM Fab) | B6
no binding (tested: 1000 nM Fab) | B7
no binding (tested: 1000 nM Fab) | B8
no binding (tested: 1000 nM Fab) | B9

target: T2, human LAP-TGFB3 Fc fusion (human); experiment: SPR
T2 construct: also called human LAP-TGFβ3; LAP-TGFβ isoform 3
Excerpt: as §1

T2 sequence (chain, as listed by the source limits assumed): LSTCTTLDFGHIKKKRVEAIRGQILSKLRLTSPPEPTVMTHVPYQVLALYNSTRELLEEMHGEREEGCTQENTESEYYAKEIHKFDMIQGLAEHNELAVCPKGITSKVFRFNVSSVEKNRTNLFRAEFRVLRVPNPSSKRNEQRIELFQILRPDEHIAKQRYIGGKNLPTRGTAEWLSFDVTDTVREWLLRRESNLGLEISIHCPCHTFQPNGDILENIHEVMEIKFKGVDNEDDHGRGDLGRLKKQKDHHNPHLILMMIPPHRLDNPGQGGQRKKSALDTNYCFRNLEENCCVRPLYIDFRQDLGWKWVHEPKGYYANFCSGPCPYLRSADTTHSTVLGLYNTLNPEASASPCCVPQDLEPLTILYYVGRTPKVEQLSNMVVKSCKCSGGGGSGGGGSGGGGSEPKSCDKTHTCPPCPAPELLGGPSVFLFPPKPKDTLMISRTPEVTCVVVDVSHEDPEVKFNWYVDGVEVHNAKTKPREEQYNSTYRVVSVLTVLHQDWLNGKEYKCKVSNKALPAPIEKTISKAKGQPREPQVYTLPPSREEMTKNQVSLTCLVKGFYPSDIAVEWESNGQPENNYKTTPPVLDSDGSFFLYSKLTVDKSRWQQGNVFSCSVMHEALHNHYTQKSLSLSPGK

binding result | Binder
no binding (tested: 1000 nM Fab) | B1
no binding (tested: 1000 nM Fab) | B2
no binding (tested: 1000 nM Fab) | B3
no binding (tested: 1000 nM Fab) | B4
no binding (tested: 1000 nM Fab) | B5
no binding (tested: 1000 nM Fab) | B6
no binding (tested: 1000 nM Fab) | B7
no binding (tested: 1000 nM Fab) | B8
no binding (tested: 1000 nM Fab) | B9

target: T3, human LAP-TGFB1 Fc fusion (human); experiment: SPR, antigen-Fc captured, Fab analyte
T3 construct: also called human LAP-TGFβ1-Fc; human LAP-TGFβ-Fc isoform 1
Excerpt: as §1

T3 sequence (chain, as listed by the source limits assumed): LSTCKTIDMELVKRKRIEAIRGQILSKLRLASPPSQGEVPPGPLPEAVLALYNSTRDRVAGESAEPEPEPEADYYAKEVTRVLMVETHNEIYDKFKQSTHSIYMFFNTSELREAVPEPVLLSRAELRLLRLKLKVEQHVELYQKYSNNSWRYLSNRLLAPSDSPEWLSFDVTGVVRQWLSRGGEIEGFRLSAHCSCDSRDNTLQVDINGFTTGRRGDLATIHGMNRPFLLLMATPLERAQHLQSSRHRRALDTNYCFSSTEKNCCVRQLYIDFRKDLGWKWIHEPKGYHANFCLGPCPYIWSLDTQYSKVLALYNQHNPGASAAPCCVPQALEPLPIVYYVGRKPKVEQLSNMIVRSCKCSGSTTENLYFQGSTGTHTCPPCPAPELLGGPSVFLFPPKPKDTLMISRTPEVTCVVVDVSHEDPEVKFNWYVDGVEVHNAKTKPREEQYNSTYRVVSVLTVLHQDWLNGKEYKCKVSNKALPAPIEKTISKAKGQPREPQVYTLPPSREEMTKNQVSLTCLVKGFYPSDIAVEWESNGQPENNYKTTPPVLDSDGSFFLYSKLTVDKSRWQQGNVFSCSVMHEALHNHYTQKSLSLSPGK

Fold improvement in KD [fold] | Kd [nM] | koff [s⁻¹] | kon [M⁻¹ s⁻¹] | Binder
7 | 11.7 | 0.0263 | 2.24e+06 | B1
13 | 6.21 | 0.0131 | 2.11e+06 | B2
512 | 0.156 | 0.000762 | 4.87e+06 | B3
25 | 3.23 | 0.0053 | 1.64e+06 | B4
37 | 2.15 | 0.0077 | 3.57e+06 | B5
31 | 2.57 | 0.00653 | 2.54e+06 | B6
1 | 175 | 0.279 | 1.59e+06 | B7
5 | 15.6 | 0.032 | 2.05e+06 | B8
10 | 8.12 | 0.0238 | 2.94e+06 | B9
